# Reference: the supplement of paper PMC10065799, “High-throughput profiling of sequence recognition by tyrosine kinases and SH2 domains using bacterial peptide display” (eLife, 2023)
# System: AncSZ
# Assay: phosphorylation enrichment, bacterial display (enrichment ratio); higher = better substrate or ligand; peptides without Tyr show the background
# 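Also: 11-residue human phosphosite peptides and single-mutation variants displayed on the E. coli surface, counted by deep sequencing, each peptide's frequency after selection divided by its frequency in the unselected input library; frequency after pTyr selection over input frequency; kinase dosed for 20-30% of maximal phosphorylation in three min.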
row,Sequence,phosphorylation enrichment
1,EVVGGYSVHNA [MLH1_Y183_R182G],0.528
2,DLFRLYICVKE [ARID1B_Y1091_V1092I],1.19
3,ALHHPYGCDVE [ABL2_Y80_R78H],0.803
4,MSRDVYSIDYY [NTRK2_Y702_T704I],1.54
5,KSDVMYTDWKK [ORM1_Y175_V174M],0.738
6,PRLLRYLQLDF [ASB10_Y457],1.39
7,QRALLYEDALF [UNC13D_Y56_YF],1.21
8,IKKLIYVYLVI [JAGN1_Y42_H44Y],0.873
9,SEHLTYLEFKS [RASGRP1_Y215],1.41
10,SVCPDYDLCSV [SQSTM1_Y148],1.65
11,ITVPAYFNDLQ [HSPA9_Y196_S200L],1.13
12,IAKNPYDPPGR,0.56
13,KPEKTYGLRKE [CEP43_Y267],0.595
14,ASMAKYFASGI [ACADSB_Y372_E376G_YF],0.544
15,QGCGIYKDYYR [PLA2G2D_Y82_S80G],1.69
16,APQFTYAQGGQ [FLNA_Y1763_YF],0.645
17,RRSQSYIPTSG [PLEKHA2_Y185],0.663

row,Sequence,phosphorylation enrichment
1,SAEEDYKADAK [KCNT1_Y876_M877K],1.18
2,FSQNIYIQNRN [PKP2_Y631_YF],0.619
3,TRFDEYLEVTK [MAP1A_Y2217_H2214Y_YF],1.32
4,YEREQYADRAR [RBM4_Y355],0.701
5,LNWIYYKDQTG [RS1_Y166],2.25
6,YSTDCYRVGGH [NTRK2_Y707_Y706C],0.733
7,EAESWYQTKFE [KRT75_Y342_YF],1.06
8,NTGDYYDLYGG [PTPN11_Y63],4.64
9,VVFIKYLPEWT [PSEN1_Y240_L235V],1.01
10,GPGGDYAAMGA [ERBB3_Y1276],0.6
11,KQLFAYKMLMA [TMC2_Y209_YF],0.858
12,HDRNTYEKFLE [TF_Y666_G671E_YF],1.07
13,LDFNEYFRDLN [HPRT1_Y198_YF],1.24
14,PEAALYGRFTI [FYN_Y440],0.875
15,VNTTLYEKFTF [TEK_Y1108_YF],0.886
16,DKPENYRRLDI [VHL_Y175_V170D],0.647

# Target: EPHB1 (UniProt P54762)
# Sequence (P54762 whole entry, looked up): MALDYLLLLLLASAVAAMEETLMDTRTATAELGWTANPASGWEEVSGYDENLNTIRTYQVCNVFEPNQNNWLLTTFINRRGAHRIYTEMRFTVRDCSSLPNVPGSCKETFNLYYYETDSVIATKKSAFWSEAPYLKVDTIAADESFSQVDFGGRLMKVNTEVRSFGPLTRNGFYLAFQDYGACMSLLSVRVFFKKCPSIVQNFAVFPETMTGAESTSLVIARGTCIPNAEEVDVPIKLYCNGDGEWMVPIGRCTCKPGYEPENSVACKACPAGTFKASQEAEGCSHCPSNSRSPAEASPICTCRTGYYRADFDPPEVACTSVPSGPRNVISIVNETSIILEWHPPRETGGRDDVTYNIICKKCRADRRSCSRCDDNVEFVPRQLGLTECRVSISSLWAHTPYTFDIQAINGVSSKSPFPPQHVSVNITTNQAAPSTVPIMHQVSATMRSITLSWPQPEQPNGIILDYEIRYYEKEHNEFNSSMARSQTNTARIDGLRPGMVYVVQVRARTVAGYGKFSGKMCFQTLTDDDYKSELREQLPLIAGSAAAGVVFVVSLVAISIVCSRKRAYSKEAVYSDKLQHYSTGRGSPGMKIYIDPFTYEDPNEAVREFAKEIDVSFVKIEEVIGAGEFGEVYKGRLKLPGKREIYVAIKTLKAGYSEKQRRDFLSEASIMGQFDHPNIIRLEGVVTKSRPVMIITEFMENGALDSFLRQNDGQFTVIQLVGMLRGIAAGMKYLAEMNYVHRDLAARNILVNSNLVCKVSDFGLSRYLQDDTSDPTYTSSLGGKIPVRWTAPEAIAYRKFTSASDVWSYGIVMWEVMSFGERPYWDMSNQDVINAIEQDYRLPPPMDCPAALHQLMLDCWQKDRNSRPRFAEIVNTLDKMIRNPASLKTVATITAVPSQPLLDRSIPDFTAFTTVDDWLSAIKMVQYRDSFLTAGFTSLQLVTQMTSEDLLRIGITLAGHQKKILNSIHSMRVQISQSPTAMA
# Assay: as above
row,Sequence,phosphorylation enrichment
1,EVVGGYSVHNA [MLH1_Y183_R182G],0.306
2,DLFRLYICVKE [ARID1B_Y1091_V1092I],0.741
3,ALHHPYGCDVE [ABL2_Y80_R78H],0.606
4,MSRDVYSIDYY [NTRK2_Y702_T704I],1.47
5,KSDVMYTDWKK [ORM1_Y175_V174M],0.488
6,PRLLRYLQLDF [ASB10_Y457],0.995
7,QRALLYEDALF [UNC13D_Y56_YF],10.4
8,IKKLIYVYLVI [JAGN1_Y42_H44Y],0.466
9,SEHLTYLEFKS [RASGRP1_Y215],1.02
10,SVCPDYDLCSV [SQSTM1_Y148],0.788
11,ITVPAYFNDLQ [HSPA9_Y196_S200L],0.705
12,IAKNPYDPPGR,0.363
13,KPEKTYGLRKE [CEP43_Y267],0.433
14,ASMAKYFASGI [ACADSB_Y372_E376G_YF],0.339
15,QGCGIYKDYYR [PLA2G2D_Y82_S80G],1.04
16,APQFTYAQGGQ [FLNA_Y1763_YF],0.372
17,RRSQSYIPTSG [PLEKHA2_Y185],0.372

row,Sequence,phosphorylation enrichment
1,SAEEDYKADAK [KCNT1_Y876_M877K],0.635
2,FSQNIYIQNRN [PKP2_Y631_YF],0.396
3,TRFDEYLEVTK [MAP1A_Y2217_H2214Y_YF],0.789
4,YEREQYADRAR [RBM4_Y355],0.383
5,LNWIYYKDQTG [RS1_Y166],1.58
6,YSTDCYRVGGH [NTRK2_Y707_Y706C],0.554
7,EAESWYQTKFE [KRT75_Y342_YF],0.721
8,NTGDYYDLYGG [PTPN11_Y63],13
9,VVFIKYLPEWT [PSEN1_Y240_L235V],0.595
10,GPGGDYAAMGA [ERBB3_Y1276],1.3
11,KQLFAYKMLMA [TMC2_Y209_YF],0.562
12,HDRNTYEKFLE [TF_Y666_G671E_YF],0.525
13,LDFNEYFRDLN [HPRT1_Y198_YF],0.442
14,PEAALYGRFTI [FYN_Y440],0.59
15,VNTTLYEKFTF [TEK_Y1108_YF],1.1
16,DKPENYRRLDI [VHL_Y175_V170D],0.388
